# Measurements: the DeepSol protein solubility set
# Test: soluble on expression in E. coli; label from the status in PepcDB or PDB records
row,Sequence,soluble on expression in E. coli
1,DFVHIMTPYLILDGELLHALKFAAERGVDVIIIMPGIPDKKSAYYLAKTYYPTLLASGVKIYEYTPGFIHAKVFVSDNSRAVVGTINLDYRSLYHHFECATYLYGTSSVLDIEEDFQATKDQCHRVSTTDVKNLPFYQKTLGLLARLVAP,not soluble
2,MGHHHHHHSHMKPLIWTWSDVEGQRPALLICTAAAGPTQGVKGYGKPFEPRSVKNIHSTPAYPDATMHRQLLAPVEGRMAETLNQKLHVANVLEDDPGYLPHVYSEEGECGGAPSLSSLASLEQELQPDLLDSLGSKATPFEEIYSESGVPS,not soluble
3,MAHHHHHHMRGEHELVIPGEQRRDWCSTDACENRLCRKKFSLLVSKQHCQWCGRIFCDNCAPCTATYGGRRLRRCNSCKFPAVFRSLRNLRTGKRDGSVARLIMSFLDSRSINALMHSCYTSLSEFNVGDYVYYESITDRFPTFFEGAMIGKGGFGSVYKCEDRSYPCRRRVALKVITKASVVTYRSWKKIVTELEIMQDVDHHNVAKLLEVLQTPHHLVIVMEAGDGGSLMQAWRLAKEYKYDVEVLVANVVLQVAEGLDYLYHKKGIVHRDIKLENIVLSHDFKRVMIIDFGLAEYVKQCETQLFVPCGTAGYTSPENIRAVVERRRVYEALGETMHLADMYSLGVVAYVLLCGHMPVATRCFSSLYQNMLKGIRCVGPHWANVSDDAKSLVESLVKTNSFERATVAVIREHPFIQAKAPLIVEIVQRHMHKQTETERREVKEWVYVEPLSDHWDMIEVETVSDEENRGLALRKGSSTFGRVGFMNRLKSVVWD,not soluble
4,MADRAEMFSLSTFHSLSPPGCRPPQDISLEEFDDEDLSEITDDCGLGLSYDSDHCEKDSLSLGRSEQPHPICSFQDDFQEFEMIDDNEEEDDEEEEEEEEEEEDGDRQGKAGGGPGSQALAGDSLIPSPSLEESHKLRPTTLHLTTLGAQDSLNNNNGGFTSAPPSSWQETVLRSPAQEPLKELPAPLLPAEEERHEVQSLARPGCDCEGNQPPEQPASSGGASPSSDPGIEADLRSHSSGGHEGRRSSQELSSPGSDSEDAGGARLGRMISSISETELELSSDGGSSSGRSSHLTNSIEEASSPASEPEPEPEPLHEPPRRPAFLPVGQDDTNSEYESGSESEPDLSEDADSPWLLSNLVSRMISEGSSPIRCPGQCLSPAPRLPEEAASQANSVPQDCQDPEAGPHVELVDMDTLCGPPPPAPAAPRLGPAQPGPCLFLSNPTRDTITPLWATPGRTARPGRSCSAACSEEEEEDEEEDEEDEEDAEDSVVPPGSRTTGSTAPLDASLVYDAVKYTLVVDEHTQLELVSLRRCAGLGNDSEEDSSCEASEEEAGATLLGSDQVPEDASPDSPDLTFSKKFLNVFVNSTSRSSSTESFGLFSCVVNGEEREQTHRAVFRFIPRHPDELELDVDDPVLVEAEEDDFWFRGFNMRTGERGVFPAFYAHAVPGPAKDLLGSKRSPCWVDRFDVQFLGSVEVP,soluble
5,MPEEESIDIKFRLYDGSDIGPFRYSAASTVDFLKQRVVSDWPKGKTVVPKGINEVKLISSGKILENNKTVGQCKTPFGDIAGGVIVMHVVVQPSLAKSKTEKKVDKAPKAVICTCTIL,soluble
6,MAHHHHHHMLRQCERLIVQLSQQVLEQEKDIHSLRAALHSSQNRRRRHRQRGGDEKRERAAAVSMAESFSVSTERRQHHHTHHITVKAPTQMTMTHEDSRLRLTLPSSMTPQVSPIHLSGDAGVDSATGPYPEAAVVAPHSPQSSGAGSAVPSPTRSVGKSSGEHGMAAALAFPSIVCDVSSFSDKTNVGLTPSAACDHPPSGESATADGLWASSLLSEPERSSSSSSLARHRRNTAQLTRNAQFETPRVNLDNQDAMSYLLCIFSSAKSTREADGGATAAMAEAGEAAPCGREHRGGAGVRSPNAPLQQQGEHVARRLFHLDPVDENEGSESGNEHSSGGAVSDYDRPAARRPFLPPLRDKRGDGDGSAPPNHKTCGAFDEDDAFLQERYARIVACALAAEFAASTTLVEEDEVEQQRGCKTGPRAPTAAWCRTTSRRDHSASATVSELLRLFTFQPATRHQPYSDGKGL,not soluble
7,SNRVNDPLIFIRDIKPGLKNLNVVFIVLEIGRVTKTKDGHEVRSCKVADKTGSITISVWDEIGGLIQPGDIIRLTRGYASMWKGCLTLYTGRGGELQKIGEFCMVYSEVPNFSEPNPDYRGQQNKGAQSEQKNNSMNSNMGTGTFGPVGNGVHTGPESREHQFSHAGRSNGRGLINPQLQGTASNQTVMTTISNGRDPRRAFKR,soluble
8,MERVKSHFHNRKKVLLARIKDELKTIPSSNQMSTDEKMEELVRRRICIGEYDEQLARVCLDIEDEEKGRTEQFGNEQIQQPMTNLFTETSHQSLLSQLLTSSASQSKSEIPISMSSPMESASSKDSEPQAVISLPTLGATRAPLLSKLLSDPSTSKENGFLLRKEPVRLARAPSAIRNPNVSNYDRKRRAASPYEKSNRLSVLPSPQNQYLSHLIVDVSSPQELKRLLSVLIDHGFSRFQHIGSSDMVASSIRTGIPRAPRLDTVEYSNYEHEPETDEISRDGTPFWSTPIPPTNKELPVSPVSQLDMTNSIKSRVERVDVEVKLEPCNDEDDEFSEEVDEQTAELEEQLATEAIRTGLALFGKVSPSPKRMKSCGSSGSVCGDVVTAICEICGIGIRLNSGGSKWNFFEHVMMKHSTHKPFKCSQCPYQAVRKVRVKQHGQSQHNSEHEPVNMITPEVRKEWLDTMAKCFPNHQYGKEAKI,not soluble
9,MFDIPGLSTGDFHGFPSLLIQTPFSHAAISLFGGQLLSFVPSGGEEVIWLSPLVQPPPTAIRGGIPICWPYFGRQGQRDTMPAHGFVRTVPWQQVESCQENDGSLFLVLAPPPLKHLGLHLRMTLRIGRTLEQELATENISHAPISFTQALHNYFRVSNALQVTVQGLDGVEYLDKFEGYTQRHRQQGHWTLQDPRDPGRADRIYVDTSGHYVLVDPLFSRRIVLTTEGSHSLVVWNPGHAGASNMIDVADGWRDYLCLEPANAGPDEIELLPGARHVLRQSIAIAPL,soluble
10,MSLTNEFEILKPGKLLLASANLLDPNFKRTVLLMCEHNEEGSIGFILNKPMEFKVCEAISGFDEIDEPLHMGGPVQVDTVHVLHTRGDVIDGAVEVIPGLFWGGDKEQLSYLINTGVIKASEVRFFLGYAGWSAGQLEAEFEEGSWYTADASSEQVFTDEYERMWSRSVRSKGGEYCYVANSPELPGMNEGHHHHHH,soluble
11,MGSDKIHHHHHHTPLPPVKQPHPATSQQHQEPVRGVWLATVSRLDWPPVTSVNTNSPAIRITQQQEALKGKLDKLKSLGINTVFFQIKPDGTALWPSKILPWSDMMTGHIGEDPGYDPLQFMLDEAHKRGMKVHAWFNPYRVSVNTKSGTVAELNRTLSQNPASVFVLHRDWIRTAGDRFVLDPGIPEARNWITSIVAEVVARYAIDGVQFDDYFYAESPGSVLNDGETFKKYGQGFGSKADWRRHNTQQLIEQVSRTIKQLKPEVEFGVSPAGVWRNRSHDAAGSDTRGAAAYDEAYADTRLWVQQGLLDYIAPQLYWPFARDAARYDVLAKWWADVVKPTSTRLYIGVALYKVGEPSKNEPDWMISGGVPELKKQLDLNESTPHIDGTILFRENYLNQPQTQEAVNYLRNRWNPI,not soluble
12,MRNILATILLVVMLFLVACTGNNNQLVSQSELVPENTPVDGNQIKAPEETLSSDSMYSDYNGKNIKFRFPKTWEMTEYQADYEYFIRFNLPTKNKNRAPNQVTIVISDMAEKSKNFDYQNKNIFEQYIENDNTMDISNITVDGCNGYKAVSIESETLYISFEKGDLRYDLIFMSDEGEFLELLPEVESMISSISTY,not soluble
13,MNRKTGTTTVGIKVKDGVILAADTQASLDHMVETLNIRKIIPITDRIAITTAGSVGDVQMIARILEAEARYYYFAWGRPMTTKAMANLLSNILNENKWFPYLVQIIIGGYVDEPTIANLDPYGGLIFDNYTATGSGTPFAIAILEEGYKENLGIEEAKELAIKAIKAAGSRDVYTGSKKVQVVTITKEGMQEEFIKL,soluble
14,MPKETFYNLSEEKRQRIINSAEKEFFRVPLSKASIANIVTGAQIPRGSFYQYFDDLNDLYHYFFEKKFQGFHENFKKELENHQGDLIEAWRQVAKKVLRRIVNSENSIFFENAIFGLNIQRDQNIIDSFANFHHPENKAPEYFDEIDFSFLKIKSKKDLITLRHIMSGIIIQAATAYFSKCDSGQKVDLEEILEGIDKQIDWLKYGVYKEKEHD,not soluble
15,MRVAYVLSSPRAASHKLGQMILPQLEAGTHGVEVVGIFFFDDNTLVLQKGNPIGERLAKVAKEKGILLMMCDLCALERGLAEGEPRWCTPEGEGRKTPGTCRVSPHVVEGVEVGCFPDLYRALAGRVDQVITL,soluble
16,MGSDKIHHHHHHMKVQFLGAARTVTGSCYVVESGGVRFAVDCGMHQGNHEIEKRNYETDVYSPETIDFFLITHAHIDHTGLLPRMVRDGFTGPVYCTEPTRDLLEIMLQDSANIQEMEAEWQTRKQKRKGRKPVDPLYTFADAARVSRFFENVEYNRPFSPVEGVTVTYKDAGHILGSAFLEIEVCEHGRCSRLIFSGDLGKPNSLIVRDPEAAAAADYLFVESTYGDRNHKDESNSRQELAEAIAYSYRQGEKVIIPAFAVERTQEVLYTLFLLQKEGRMPVDMPIFLDSPLAIRATEIFRKHPRFFDEEMQKLLLSGEDPFAMPSLRLTTKTQESQAINNYTGPAVIISASGMCNAGRIKHHLRHNIWRPGASIVFVGYQAVGTPGRRIVDGARSIRLFGEEIAIQAKVFTIGGFSGHAGQSQILDWVGKFATKEMKVFLVHGEEKAQQALKAILEEKYELSVHSPGYLEEIELEPGEAVVTTGDPQRYQPQLNWDFLLSETEARMMQLRARKGDIEHADWAQQVEIRDRLLELNNEMLGILSEL,not soluble
17,SRLSIDLYPKIETSNIMVVTSYAGASASDIENNVTKVLENTLNGVSNLKHITSKSRENASVITLQFNEGVDIEVATNDVRDKLDAVSNFLPDDVNKPMIFKFGTDDIPITMLSVQAKESTMALSKILEDKVTNALARLDGVGAVSIMGTVKREIQVYCDPAKLEAYNLTVEAVSQIISAENKNVPAGLIDLGNKTSSIRIQGEFADARQLNQIVVASVGGRNVYLSDVARVEDTHAENEQESYNNNVRGAMIMINKQSGANSVAISRAVRGALPEIQASLPSDVELGTIFDTSDNIVNTINSLRD,not soluble
18,FLNTISTKDFKQKMADKTTGFVYVGRPTCEDCQAFQPILKKELEKRQPDQKMAYYNTDKASEKSRDDMIALLKKMDIDSVPTMVYLKDGKVASTYAATDEPAKLTNWMNKVSGEVSE,soluble
19,MSCYIYWDKIKRIASRLEGMNYHFDEMDTSGVMPLLDEIEEIAHDSTIDFESAKHILDDAEMNHALSLIRKFYVNLGMKLQMEKAQEVIESDSPWETLRSFYFYPRYLELLKNEAALGRFRRGERAVFIGGGPLPLTGILLSHVYGMRVNVVEIEPDIAELSRKVIEGLGVDGVNVITGDETVIDGLEFDVLMVAALAEPKRRVFRNIHRYVDTETRIIYRTYTGMRAILYAPVSDDDITGFRRAGVVLPSGKVNNTSVLVFKCPDKGELNSKLEGKPIPNPLLGLDSTRTGHHHHHH,soluble
20,MLKSLQIPVEKLTSKGIKSAEDRITWVKREIGRLPEKEEVFNAILEALKEELGIEPYWGELTKEELELFEEKKDYFKSDEWIYHVKKAITGDEILYGIYRCPGGTFRVSAKVDPQTKVLQQVIINGDFFINPKRLIYDLEAYLKHTPVQEVEKRIREFFKEREFESVNLTVDDFVEA,soluble
